Reference: patent US7727960B2, “C5a receptor antagonists” (Jerini AG, priority 2003, dated 2010)
Like-named read-outs stand apart in the source and are kept apart here. Starred links: 1 amine or outer side, 2 acyl side, 3 side chain; linkers in the order of their positions; H or OH if unused. Positions of bridges follow the written chain, without caps; N, C: chain ends. Non-standard residues stand in square brackets, D forms with d. No end group written: not given here. *: point of attachment. Fck = HO-CH2-(CHOH)4-C=N-O-CH2-CO- (oxime-linked sugar acyl cap); Ebo = Cys(4-picolyl), O=C([C@H](CSCc1ccncc1)N[*:1])[*:2]; Ebu = Cys(3-picolyl), O=C([C@H](CSCc1cccnc1)N[*:1])[*:2]; Ecg = Cys(2-picolyl), O=C([C@H](CSCc1ccccn1)N[*:1])[*:2]; Phe(F5) = N[C@@H](Cc1c(F)c(F)c(F)c(F)c1F)C(=O)O; Phe(4-tBu) = CC(C)(C)c1ccc(C[C@H](N)C(=O)O)cc1; Fbo = morpholine-4-carbonyl, O=C(N1CCOCC1)*; 2Nal = N[C@@H](Cc1ccc2ccccc2c1)C(=O)O; d(hLeu) = CC(C)CC[C@@H](N)C(=O)O; hCit = NC(=O)NCCCC[C@H](N)C(=O)O; αMeF = C[C@](N)(Cc1ccccc1)C(=O)O; Cha = N[C@@H](CC1CCCCC1)C(=O)O; dCha = N[C@H](CC1CCCCC1)C(=O)O; Nle = CCCC[C@H](N)C(=O)O; Orn = NCCC[C@H](N)C(=O)O; Aze = O=C(O)[C@@H]1CCN1; Ecf = Cys(O-3-picolyl); Fbn = not defined here

T1: human C5aR (CD88) (human, UniProt P21730 1-350)
T1 sequence (looked up): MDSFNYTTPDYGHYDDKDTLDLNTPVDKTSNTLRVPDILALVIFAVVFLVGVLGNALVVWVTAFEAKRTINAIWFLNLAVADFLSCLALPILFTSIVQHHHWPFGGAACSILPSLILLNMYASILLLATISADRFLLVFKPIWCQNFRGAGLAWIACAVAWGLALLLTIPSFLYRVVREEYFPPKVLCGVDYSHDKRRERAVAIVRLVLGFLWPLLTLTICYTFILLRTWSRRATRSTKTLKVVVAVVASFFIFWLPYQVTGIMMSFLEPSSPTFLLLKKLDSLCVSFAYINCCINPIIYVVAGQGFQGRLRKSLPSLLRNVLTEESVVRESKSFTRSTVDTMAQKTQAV

B1: Ac-Phe-[Orn-Pro-cha-Trp-Ecf] (peptide)
peptide: Ac-F[Orn]P[dCha]W[Ecf]
modifications: lactam (positions not given here); not fully specified (bridges); printed as Ac-Phe-[Orn-Pro-cha-Trp-Ecf]
B2: Ac-Phe-[Orn-Pro-cha-Trp-Ebo] (peptide)
peptide: Ac-F[Orn]P[dCha]W[Ebo]
modifications: lactam (positions not given here); not fully specified (bridges); printed as Ac-Phe-[Orn-Pro-cha-Trp-Ebo]
B3: Fck-[Phe-Orn-Pro-cha-Trp-Nle] (peptide)
peptide: Fck-F[Orn]P[dCha]W[Nle]
modifications: bridge (positions not given here); not fully specified; printed as Fck-[Phe-Orn-Pro-cha-Trp-Nle]; also: cyclic [1-6], linkage not given here
B4: H-Amf-[Orn-Aze-hle-Pff-Nle] (peptide)
peptide: H-[αMeF][Orn][Aze][d(hLeu)][Phe(F5)][Nle]
modifications: lactam 2-C
SMILES: CCCC[C@@H]1NC(=O)[C@H](Cc2c(F)c(F)c(F)c(F)c2F)NC(=O)[C@@H](CCC(C)C)NC(=O)[C@@H]2CCN2C(=O)[C@@H](NC(=O)[C@@](C)(N)Cc2ccccc2)CCCNC1=O
B5: Ac-Phe-[Orn-Pro-cha-Trp-Ecg] (peptide)
peptide: Ac-F[Orn]P[dCha]W[Ecg]
modifications: lactam (positions not given here); not fully specified (bridges); printed as Ac-Phe-[Orn-Pro-cha-Trp-Ecg]
B6: Ac-Phe-[Orn-Pro-cha-Trp-Ebu] (peptide)
peptide: Ac-F[Orn]P[dCha]W[Ebu]
modifications: lactam (positions not given here); not fully specified (bridges); printed as Ac-Phe-[Orn-Pro-cha-Trp-Ebu]
B7: H-Phe-[Orn-Ser-cha-Trp-Phe] (peptide)
peptide: H-F[Orn]S[dCha]WF
modifications: lactam 2-C
SMILES: N[C@@H](Cc1ccccc1)C(=O)N[C@H]1CCCNC(=O)[C@H](Cc2ccccc2)NC(=O)[C@H](Cc2c[nH]c3ccccc23)NC(=O)[C@@H](CC2CCCCC2)NC(=O)[C@H](CO)NC1=O
B8: Ac-Phe-[Orn-Pro-cha-Trp-Hci] (peptide)
peptide: Ac-F[Orn]P[dCha]W[hCit]
modifications: lactam (positions not given here); not fully specified (bridges); printed as Ac-Phe-[Orn-Pro-cha-Trp-Hci]

What was measured:
human C5aR (CD88) [1] = molecular target: T1, human C5aR (CD88); assay: cell-based or functional assay
human C5aR (CD88) [2] = molecular target: T1, human C5aR (CD88); assay: cell-based or functional assay; remark: listed apart in the source

Molecule | IC50 activity group, enzyme release assay (human C5aR (CD88) [1]) | further results
Ac-Thi-Orn-Pro-cha-Bta-Phe-NH2 (peptide) | < 50 nM | –
Ac-Thi-Orn-Pro-cha-Bta-Thi-NH2 (peptide) | < 50 nM | –
Ac-Thi-Orn-Pro-cha-Trp-Phe-NH2 (peptide) | < 200 nM | –
Ac-Thi-[Orn-Pro-hle-Bta-Phe] (peptide) | < 200 nM | –
Ac-Thr-Phe-Orn-Aze-cha-Bta-Phe-NH2 (peptide) | < 50 nM | –
Bzl-[Orn-Pro-cha-Bta-Nle] (peptide) | < 200 nM | –
CH3-SO2-Phe-Orn-Aze-cha-Bta-Phe-NH2 (peptide) | < 50 nM | –
CH3CH2CO-Phe-Orn-Pro-cha-Bta-Phe-NH2 (peptide) | < 50 nM | –
FAc-Phe-Orn-Aze-cha-Bta-Phe-NH2 (peptide) | < 50 nM | –
FAc-Phe-Orn-Pro-cha-Bta-Phe-NH2 (peptide) | < 50 nM | –
FH2C-CO-Phe-Orn-Pro-cha-Bta-Phe-NH2 (peptide) | < 50 nM | –
H2N-CO-Phe-Orn-Pro-cha-Bta-Phe-NH2 (peptide) | < 50 nM | –
H-Bal-Phe-[Orn-Hyp-hle-Trp-Nle] (peptide) | < 200 nM | –
H-Bal-Phe-[Orn-Pro-hle-Pff-Nle] (peptide) | < 200 nM | –
H-Nip-Phe-Cit-Pro-hle-Bta-Phe-NH2 (peptide) | < 200 nM | –
H-Phe-Cit-Pro-hle-Bta-Phe-NH2 (peptide) | < 200 nM | –
H-Phe-[Lys-Hyp-hle-Pff-Nle] (peptide) | < 200 nM | –
H-Phe-[Orn-Hyp-cha-Trp-Nle] (peptide) | < 50 nM | –
H-Phe-[Orn-Hyp-cha-Trp-Phe] (peptide) | < 50 nM | –
H-Phe-[Orn-Hyp-hle-Mcf-Leu] (peptide) | < 200 nM | –
H-Phe-[Orn-Hyp-hle-Pff-Chg] (peptide) | < 200 nM | –
H-Phe-[Orn-Hyp-hle-Pff-Hle] (peptide) | < 200 nM | –
H-Phe-[Orn-Hyp-hle-Pff-Leu] (peptide) | < 200 nM | –

Molecule | IC50 activity group, enzyme release assay (human C5aR (CD88) [1]) | further results
H-Phe-[Orn-Hyp-hle-Pff-Nle] (peptide) | < 200 nM | –
H-Phe-[Orn-Hyp-hle-Pff-Phe] (peptide) | < 200 nM | –
H-Phe-[Orn-Hyp-hle-Trp-Hle] (peptide) | < 200 nM | –
H-Phe-[Orn-Hyp-hle-Trp-Leu] (peptide) | < 50 nM | –
H-Phe-[Orn-Hyp-hle-Trp-Nle] (peptide) | < 50 nM | –
H-Phe-[Orn-Hyp-hle-Trp-Nva] (peptide) | < 200 nM | –
H-Phe-[Orn-Hyp-hle-Trp-Phe] (peptide) | < 50 nM | –
H-Phe-[Orn-NMS-cha-Trp-Nle] (peptide) | < 200 nM | –
H-Phe-[Orn-NMS-hle-Pff-Phe] (peptide) | < 200 nM | –
H-Phe-[Orn-Pro-cha-Pff-Nle] (peptide) | < 200 nM | –
H-Phe-[Orn-Pro-cha-Pff-Phe] (peptide) | < 200 nM | –
H-Phe-[Orn-Pro-hle-Mcf-Phe] (peptide) | < 50 nM | –
H-Phe-[Orn-Pro-hle-Ocf-Phe] (peptide) | < 200 nM | –
H-Phe-[Orn-Pro-hle-Pff-Nle] (peptide) | < 200 nM | –
H-Phe-[Orn-Pro-hle-Pff-Phe] (peptide) | < 50 nM | –
H-Phe-[Orn-Ser-cha-Trp-Nle] (peptide) | < 50 nM | EC50, agonistic activity, enzyme release assay (human C5aR (CD88) [1]): > 1430 nM
H-Phe-[Orn-Ser-hle-Mcf-Leu] (peptide) | < 200 nM | –
H-Phe-[Orn-Ser-hle-Ocf-Nle] (peptide) | < 200 nM | –
H-Phe-[Orn-Ser-hle-Pff-Leu] (peptide) | < 200 nM | –
H-Phe-[Orn-Ser-hle-Pff-Nle] (peptide) | < 50 nM | –
H-Phe-[Orn-Ser-hle-Pff-Phe] (peptide) | < 200 nM | –
H-Phe-[Orn-Ser-hle-Trp-Nle] (peptide) | < 50 nM | –
Me-O-CO-Phe-Orn-Pro-cha-Bta-Phe-NH2 (peptide) | < 200 nM | –

Molecule | IC50 activity group, enzyme release assay (human C5aR (CD88) [1]) | further results
hrC5a (from UniProt P01031 678-751) (ligand) | – | EC50, agonistic activity, enzyme release assay (human C5aR (CD88) [1]): 2.4 nM
tBu-CO-Phe-Orn-Pro-cha-Bta-Phe-NH2 (peptide) | < 200 nM | –
Ac-F[Orn]P[dCha]W-{NH‑CH2‑CH2‑Ph} [Ac-Phe-Orn-Pro-cha-Trp-NH-CH2-CH2-Ph] | – | IC50 activity group, enzyme release assay (human C5aR (CD88) [2]): ≤ 2000 nM
B1 | – | IC50 activity group, enzyme release assay (human C5aR (CD88) [2]): ≤ 2000 nM
B2 | – | IC50 activity group, enzyme release assay (human C5aR (CD88) [2]): ≤ 2000 nM
B3 | – | IC50 activity group, enzyme release assay (human C5aR (CD88) [2]): ≤ 200 nM
B4 | – | IC50 activity group, enzyme release assay (human C5aR (CD88) [2]): ≤ 200 nM
H-F[Orn]P[d(hLeu)]W[Nle] (lactam 2-C) [H-Phe-[Orn-Pro-hle-Trp-Nle]] | – | IC50 activity group, enzyme release assay (human C5aR (CD88) [2]): ≤ 50 nM
Ac-F[Orn]P[dCha]W[Phe(4-tBu)]-NH2 [Ac-Phe-Orn-Pro-cha-Trp-Eap-NH2] | – | IC50 activity group, enzyme release assay (human C5aR (CD88) [2]): ≤ 2000 nM
{Ph2‑CH‑CH2‑CO}-[Orn]P[dCha]WF-NH2 [Ph2-CH-CH2-CO-Orn-Pro-cha-Trp-Phe-NH2] | – | IC50 activity group, enzyme release assay (human C5aR (CD88) [2]): ≤ 2000 nM
Fbn-F[Orn]P[dCha]W[Nle] (lactam 2-C; reading uncertain; also: printed as Fbn-Phe-[Orn-Pro-cha-Trp-Nle]) [Fbn-Phe-[Orn-Pro-cha-Trp-Nle]] | – | IC50 activity group, enzyme release assay (human C5aR (CD88) [2]): ≤ 200 nM
H-F[Orn]P[dCha]W[Nle] (lactam 2-C) [H-Phe-[Orn-Pro-cha-Trp-Nle]] | – | IC50 activity group, enzyme release assay (human C5aR (CD88) [2]): ≤ 200 nM
Ac-F[Orn]P[dCha]W[2Nal]-NH2 [Ac-Phe-Orn-Pro-cha-Trp-2Ni-NH2] | – | IC50 activity group, enzyme release assay (human C5aR (CD88) [2]): ≤ 50 nM
B5 | – | IC50 activity group, enzyme release assay (human C5aR (CD88) [2]): ≤ 2000 nM
FXPXWX (not fully specified; Ac-; Orn2; cha4 (D); Eew6; cyclic [2-6]) [Ac-Phe-[Orn-Pro-cha-Trp-Eew]] | – | IC50 activity group, enzyme release assay (human C5aR (CD88) [2]): ≤ 2000 nM
B6 | – | IC50 activity group, enzyme release assay (human C5aR (CD88) [2]): ≤ 2000 nM
B7 | – | IC50 activity group, enzyme release assay (human C5aR (CD88) [2]): ≤ 50 nM
Ac-F[Orn]P[dCha]W[Cha]-NH2 [Ac-Phe-Orn-Pro-cha-Trp-Cha-NH2] | – | IC50 activity group, enzyme release assay (human C5aR (CD88) [2]): ≤ 200 nM
B8 | – | IC50 activity group, enzyme release assay (human C5aR (CD88) [2]): ≤ 2000 nM
Fbo-F[Orn]P[dCha]W[Nle] (lactam 2-C (inferred)) [Fbo-Phe-[Orn-Pro-cha-Trp-Nle]] | – | IC50 activity group, enzyme release assay (human C5aR (CD88) [2]): ≤ 200 nM
Fck-F[Orn]P[dCha]W[Nle] (lactam 2-C (inferred)) [Fck-Phe-[Orn-Pro-cha-Trp-Nle]] | – | IC50 activity group, enzyme release assay (human C5aR (CD88) [2]): ≤ 200 nM
